The source of these data is PMC8292379.

This test has as its target Human mitochondrial chaperonin mHsp60 (human), P10809. As to the kind of experiment: cryo-EM structure; ~9 mg/ml mHsp60 on Quantifoil holey carbon grids, Titan Krios 300 kV, C7 symmetry imposed, combined map at 3.4 Å; 2D class averages show seven-fold symmetry. As to conditions: remark: other sources report otherwise.

B1: Human mitochondrial chaperonin mHsp60, P10809 27-573 (natural protein)
chain: AKDVKFGADARALMLQGVDLLADAVAVTMGPKGRTVIIEQSWGSPKVTKDGVTVAKSIDLKDKYKNIGAKLVQDVANNTNEEAGDGTTTATVLARSIAKEGFEKISKGANPVEIRRGVMLAVDAVIAELKKQSKPVTTPEEIAQVATISANGDKEIGNIISDAMKKVGRKGVITVKDGKTLNDELEIIEGMKFDRGYISPYFINTSKGQKCEFQDAYVLLSEKKISSIQSIVPALEIANAHRKPLVIIAEDVDGEALSTLVLNRLKVGLQVVAVKAPGFGDNRKNQLKDMAIATGGAVFGEEGLTLNLEDVQPHDLGKVGEVIVTKDDAMLLKGKGDKAQIEKRIQEIIEQLDVTTSEYEKEKLNERLAKLSDGVAVLKVGGTSDVEVNEKKDRVTDALNATRAAVEEGIVLGGGCALLRCIPALDSLTPANEDQKIGIEIIKRTLKIPAMTIAKNAGVEGSLIVEKIMQSSSEVGYDAMAGDFVNMVEKGIIDPTKVVRTALLDAAGVASLLTTAEVVVTEIPKEEKDPGMGAMGGMGGGMGGGMF
On to B1, for which the stoichiometry N was 7.
